Test results: FireProtDB (doi:10.1002/pro.370)
Several values for one entry are separate records, joined by “and”; a condition that tells them apart may be missing. Equal values may be shown once.

B1: Variable large protein wild type, O06878 (protein)
chain: MKKISSAILLTTFFVFINCKSQVADKDDPTNKFYQSVIQLGNGFLDVFTSFGGLVAEAFGFKSDPKKSDVKTYFTTVAAKLEKTKTDLNSLPKEKSDISSTTGKPDSTGSVGTAVEGAIKEVSELLDKLVKAVKTAEGASSGTAAIGEVVADADAAKVADKASVKGIAKGIKEIVEAAGGSEKLKAVAAAKGENNKGAGKLFGKAGAAAHGDSEAASKAAGAVSAVSGEQILSAIVTAADAAEQDGKKPEEAKNPIAAAIGDKDGGAEFGQDEMKKDDQIAAAIALRGMAKDGKFAVKDGEKEKAEGAIKGAAESAVRKVLGAITGLIGDAVSSGLRKVGDSVKAASKETPPALNK
B2: Guanyl-specific ribonuclease Sa wild type, P05798 (protein)
chain: DVSGTVCLSALPPEATDTLNLIASDGPFPYSQDGVVFQNRESVLPTQSYGYYHEYTVITPGARTRGTRRIITGEATQEDYYTGDHYATFSLIDQTC

Conditions: 25 °C, Urea, CD, whole UniProt chain shown
[1] = Borreliella burgdorferi, pH 7, MOPS 30 mM
[2] = Kitasatospora aureofaciens, pH 3, Glycine 30 mM
[3] = Kitasatospora aureofaciens, pH 7, MOPS 30 mM

Protein	denaturant m value [1]	denaturant midpoint (higher = more stable) [1]	unfolding free energy [1]	denaturant m value [2]	denaturant midpoint (higher = more stable) [2]	unfolding free energy [2]	denaturant m value [3]	denaturant midpoint (higher = more stable) [3]	unfolding free energy [3]
B1	3.86 kcal/mol/M	1.19 M	4.6 kcal/mol	–	–	–	–	–	–
B2	–	–	–	1.63 kcal/mol/M	1.6 M	2.6 kcal/mol	1 kcal/mol/M and 0.94 kcal/mol/M	6.4 M and 6.45 M	6.4 kcal/mol and 6.1 kcal/mol
